US6462173B1, “Inhibitors of phosphoserine and phosphothreonine-proline-specific isomerases” (Max-Planck-Gesellschaft zur Forderung der, priority 1997, dated 2002)

T1: mitotic GST-Cdc25 (Xenopus laevis, UniProt P30309)
T1 construct: made in house
T1 sequence (P30309 1-550): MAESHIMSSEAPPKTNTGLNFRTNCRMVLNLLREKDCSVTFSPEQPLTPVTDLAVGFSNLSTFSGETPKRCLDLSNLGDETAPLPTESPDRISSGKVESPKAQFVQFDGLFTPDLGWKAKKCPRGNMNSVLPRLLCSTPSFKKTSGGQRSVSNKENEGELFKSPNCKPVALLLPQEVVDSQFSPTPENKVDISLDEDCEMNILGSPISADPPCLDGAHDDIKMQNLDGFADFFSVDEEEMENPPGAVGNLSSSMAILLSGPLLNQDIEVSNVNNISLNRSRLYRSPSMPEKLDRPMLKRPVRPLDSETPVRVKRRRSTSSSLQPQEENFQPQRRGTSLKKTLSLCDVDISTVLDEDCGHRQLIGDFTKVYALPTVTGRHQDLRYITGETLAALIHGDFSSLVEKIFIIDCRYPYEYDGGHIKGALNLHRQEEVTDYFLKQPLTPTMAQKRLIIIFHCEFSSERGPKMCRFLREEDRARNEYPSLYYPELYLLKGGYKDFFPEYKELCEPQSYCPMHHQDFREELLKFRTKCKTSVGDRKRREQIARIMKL


Experiments:
[1] = test system: MPM-2 antigens; test: GST-Pin1 pull-down / depletion of MPM-2 antigens from HeLa cell extracts, MPM-2 immunoblotting; assay type: binding, human; details: mitotic HeLa cell extracts, GST fusion proteins
Procedure: (§1) To detect Pin1-binding proteins, either HeLa cells were lysed in or Xenopus extracts were diluted in a buffer (buffer A) containing 50 mM Tris-HCl, pH 8.0, 200 mM NaCl, 100 mM NaF, 1 mM sodium orthovanadate, 10% glycerol, 1% Triton X100, 10 μg/ml aprotinin, 50 μg/ml phenylmethylsulfonyl fluoride and 1 mM DTT. The lysates were preclarified with boiled S. aureus bacteria (CalBiochem) and then incubated with 10 μl of agarose beads containing various GST-Pin1 proteins or control GST for 2 h at 4° C. The precipitated proteins were washed 5 times in the same buffer and subjected to immunoblotting analysis. Immunoprecipitation and immunoblotting analysis using MPM-2 antibody (Davis et al. 1983), which was kindly provided by J. Kuang, Pin1 antibodies (Lu et al., 1996, kindly provided by M. White or newly generated), anti-phospho.Tyr antibody (UBI), anti-Cdc25C (Ogg, et al., 1994) (from H. Piwnica-Worms and Santa Cruz Biotechnology), anti-Cdc27, anti-Plk1 (Zymed), anti-Cdc2 (Solomon, M. J., M. Glotzer, T. H. Lee, M. Philippe and M. W. Kirschner. Cell 63:1013-1024 (1991), anti-human Myt1, anti-human cyclin B1 and anti-Xenopus cyclin B were performed, as described previously in Lu and Hunter, 1995; Lu et al., 1996).
To determine whether GST-Pin1 can deplete MPM-2 antigens and to estimate what concentrations of Pin1 are required to completely deplete MPM-2 antigens, mitotic extracts were incubated with different amounts of GST-Pin1, followed by analyzing MPM-2 antigens remaining in the depleted supernatants. The total cellular Pin1 concentration in HeLa cells was estimated to be about 0.5 μM, based on immunoblotting analysis using anti-Pin1 antibodies with recombinant Pin1 protein as a standard.
To determine if the Pin1 mutants interact with mitotic phosphoproteins, GST-Pin1, -Pin1^R68,69A and -Pin1^H59A fusion proteins were incubated with interphase or mitotic HeLa cell extracts and associated proteins subjected to MPM-2 immunoblotting analysis. […] A few proteins including the most strongly reacting p55 band could still be recognized. […] Thus, mutating the residues that are implicated in binding either the substrate's putative phosphate group or the substrate's Pro residue abolish the ability of Pin1 to bind MPM-2 antigens.

[2] = test system: Cdc25, Cdc27; test: Binding of GST-Pin1 mutants to Cdc25 or Cdc27
Procedure: as §1
Several known mitotic regulators such as cyclin B, Cdc25, Myt1, Plk1 and Cdc27 are phosphorylated at mitosis. […]

[3] = target: T1, mitotic GST-Cdc25; test: Cdc25 activity assay (activation of cyclin B/Cdc2, H1 kinase); assay type: biochemical; details: 0.67 μM protein, 1 μM mitotic Cdc25
Procedure: Cdc2 was assayed using histone H1 as a substrate, as previously described in Murray, 1991; Lu and Hunter, (1995).
A subthreshold concentration of GST cyclin B (10 μg) was added to 1 ml of Xenopus interphase extract for thirty min at room temperature (Solomon, M. J., M. Glotzer, T. H. Lee, M. Philippe and M. W. Kirschner, Cell 63:1013-1024 (1990). This was diluted 8 fold in XB+3 mM DTT, rotated for 1 h with 3 ml of GST agarose beads, washed 3 times in XBIP (XB+500 mM NaCl and 1% NP40+2 mM DTT), washed 2 times (once overnight) in EB (80 mM β glycerol phosphate, 15 mM EGTA, 15 mM MgCl2)+2 mM DTT, 500 mM NaCl and 1% NP40, and finally twice with EB+10 mM DTT. These Cdc25 assay beads were stored at 4° C. for up to 1 month. Mitotic GST-Cdc25 was purified by incubating 22 μg of GST-Cdc25, in a Xenopus mitotic extract for 30 min at 23° C., this was diluted 8 fold in XB and rotated with 50 μl of glutathione-Agarose beads (Sigma) for 1 hr at 4° C. The beads were washed 5 times in XB-IP, twice in XB+2 mM DTT and eluted in 25 μl XB+2 mM reduced GSH. The final concentration of Mitotic GST-Cdc25 was 0.36 mg/ml. […] Phosphoimager analysis of the H1 kinase assays were quantified by the Molecular Dynamics ImageQuant 3.3 software. […] The most reproducible way to quantify the Cdc25 activity in this assay was by determining the endpoint dilution of Cdc25 which could activate Cdc2. […]

[4] = target: T2, Pin1 (Homo sapiens, UniProt Q13526); test: Precipitation with GST-Pin1 beads of synthesized phosphoproteins incubated with interphase and mitotic Xenopus extracts; assay type: binding; parameters: key: +: a week but above background interaction; ++: readily detectable interaction; +++: strong interaction; details: mitotic Xenopus extracts
T2 construct: fusion protein containing full length Pin1 was bacterially expressed, purified; made in house
Procedure: The binding between Pin1 and all selected mitotic phosphoproteins was assayed by incubating synthesized proteins with interphase and mitotic Xenopus extracts, followed by precipitation with GST-Pin1beads. The Pin1 interactions with those proteins indicated with * were also confirmed by GST-Pin1 pull-down assay from endogenous interphase and mitotic HeLa cell extracts. +, a week but above background interaction; ++, readily detectable interaction; +++, strong interaction.
The mitotic phosphoproteins were translated in vitro using the TNT coupled transcription/translation kit (Promega) in a total volume of 10 μl in the presence of 8 μCi [^35S]methionine (1000 Ci/mmol) for 2 h at 30° C. They were then incubated in xenopus interphase and mitotic extracts as described (Stukenberg et al., 1997). These incubated clones were precipitated by Pin1 beads as described below. The Xenopus Mos and Weel clones were a kind gift of M. Murakami, G, F. Woude and J. Cooper; the Xenopus Cdc25 clone was a generous gift of W. Dunphy, T3 and T3S2 Cdc25 mutants were kindly provided by J. Maller (Izumi and Maller, 1993).
as §1
To gain a sense of the generality of the interaction between Pin1 and mitotic phosphoproteins and to confirm the Pin1 interaction with target proteins is indeed mediated by phosphorylation, the ability of Pin1 to bind other known mitotic phosphoproteins and a set of mitotic phosphoproteins identified by a systematic phosphoprotein screen (Stukenberg et al., Curr Biol 7:338-348 (1997). Proteins synthesized in vitro were phosphorylated in a cell cycle specific manner by incubating them in either Xenopus interphace or mitotic extracts. These labeled protein were subsequently incubated with GST-Pin1 beads that were extensively washed and the bound proteins analyzed by SDS-PAGE. To validate this method, Cdc25 was first tested. Again, the mitotically phosphorylated form of in vitro translated Cdc25 could be precipitated by GST-Pin1 beads. However, Cdc25 was not recognized by Pin1 if it was incubated in interphase extracts. […] Out of the 13 mitotic phosphoproteins examined, Pin1 bound 10 in a mitosis and phosphorylation-dependent manner (summarized in Table 1), including Weel, MP75 and MP110, MP75 and MP110 are Xenopus proteins related to microtubule-associated protein E-MAP-115 and the fission yeast G2 transcription factor Cdc5, respectively.

[5] = target: T2, Pin1; test: Confirmation of interaction between Pin1 and predicted Pin1 substrates; details: Pin1 binding confirmed in vitro (SC35 inferred from colocalization)
Procedure: On the basis of amino acid preferences deduced in the 6 positions surrounding the pS-P motif for optimal Pin1 binding, a weighted screening of the SWISS-PROT sequence database. Protein sequence database screening was performed with the program INDOVINATOR, using an entropy-based weighing technique to score for relative information content at each amino acid position flanking the pS/pT-P motif with the quantitative peptide library results, which are shown qualitatively in Table 3. […] Many of these proteins are involved in regulation of the cell cycle, cytoskeletal/spindle structure, DNA replication, transcription or RNA processing (Table 4).
Several of these predicted proteins, such as Rab4, Cdc25 and NIMA, undergo mitosis-specific phosphorylation (R. Heald and F. McKeon, Cell 61:579 (1990); E. Bailly, et al., Nature 350:715 (1991); A. Blangy, et al., Cell 83:1159 (1995): J. Kuang, et al., Mol. Biol. Cell 5:135 (1994); X. S. Ye, et al., EMBO J. 14:986 (1995)). Cdc25 and NIMA also binds to Pin1 in a phosphorylation-dependent manner, as described herein. Other proteins identified in this search, however, had not been previously suspected of interacting with Pin1; therefore, a few were further investigated as example cases. […] Thus, Pin1 binds a wide functional range of mitotic phosphoproteins.

[6] = target: T2, Pin1; test: Pin1 precipitation from interphase and mitotic HeLa extracts probed with antibodies to known mitotic phosphoproteins; assay type: binding
Procedure: as §1
Several known mitotic regulators such as cyclin B, Cdc25, Myt1, Plk1 and Cdc27 are phosphorylated at mitosis. To identify at least a few of the many Pin1 binding proteins, Pin1-binding proteins were precipitated from HeLa cells, or Xenopus extracts and probed with antibodies specific for known mitotic phosphoproteins. As shown previously, levels of Plk1 and cyclin B1 increased at mitosis, whereas similar amounts of Cdc25C were present in interphase and mitotic HeLa cells. […] Similarly, only the mitotic, but not the interphase form of Xenopus Cdc27 was precipitated by Pin1.

[7] = test system: phosphorylated and unphosphorylated peptide substrates; AEPF, AAPF; test: PPIase activity of site-directed Pin1 mutants and parvulin; assay type: biochemical
From the text: To test these predictions from the model, site-directed Pin1 mutants were generated and their PPIase activity assayed as described herein and in K. P. Lu, S. D. Hanes, T. Hunter, Nature 380:544 (1996); K. P. Lu and T. Hunter, Cell 81:413 (1995).
Site-directed mutations of Pin1 were introduced using PCR-based techniques and verified by DNA sequencing. The corresponding mutant proteins were expressed and purified using the same procedures as those described for wild-type Pin1. PPIase activity was measured, as described previously (Lu et al., 1996), with the exception that the absorbance of p-nitroaniline (at 395 nM) was followed every second for 2-10 min. and data were analyzed offline using a kinetic computer program written by G. Tucker-Kellogg in the C.

T2 sequence (Q13526 whole entry, the tested form may be a part): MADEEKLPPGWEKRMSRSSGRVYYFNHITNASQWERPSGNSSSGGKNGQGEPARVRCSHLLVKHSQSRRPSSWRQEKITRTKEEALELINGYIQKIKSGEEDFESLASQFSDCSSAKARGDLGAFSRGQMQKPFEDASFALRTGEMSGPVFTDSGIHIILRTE

| Binding Confirmed [5] | Molecule | binding of MPM-2 antigens [1] | interaction with Cdc25 or Cdc27 [2] | precipitation by Pin1 [6] | further results |
| --- | --- | --- | --- | --- | --- |
| – | Pin1^H59A: Pin1 mutant with Ala substitution at His-59 | significantly reduced compared to the wild-type protein | neither mutant Pin1^R68,69A nor Pin1^H59A interacted with Cdc25 or Cdc27 | – | – |
| – | Pin1^R68,69A: Pin1 mutant with Ala substitutions at Arg68 and Arg69 | significantly reduced compared to the wild-type protein | neither mutant Pin1^R68,69A nor Pin1^H59A interacted with Cdc25 or Cdc27 | – | effect on Cdc25 activity [3]: neither the mutant Pin1^R68,69A at the same concentration (0.67 μM), or BSA at a 25 fold higher concentration (15 μM) had a significant inhibitory effect on Cdc25 activity |
| Yes | Plk1: Polo-like kinase, mitotic phosphoprotein | – | – | bound selectively only to the mitotically hyperphosphorylated form | Interaction with Pin1, Mitotic [4]: +++ |
| Yes | Cdc25C: cell cycle regulatory protein, predicted Pin1 substrate; human Cdc25C in HeLa extracts (protein) STELFSSTREEGSSGSGPSFRSNQRKMLNLLLERDTSFTVCPDVPRTPVGKFLGDSANLSILSGGTPKRCLDLSNLSSGEITATQLTTSADLDETGHLDSSGLQEVHLAGMNHDQHLMKCSPAQLLCSTPNGLDRGHRKRDAMCSSSANKENDNGNLVDSEMKYLGSPITTVPKLDKNPNLGEDQAEEISDELMEFSLKDQEAKVSRSGLYRSPSMPENLNRPRLKQVEKFKDNTIPDKVKKKYFSGQGKLRKGLCLKKTVSLCDITITQMLEEDSNQGHLIGDFSKVCALPTVSGKHQDLKYVNPETVAALLSGKFQGLIEKFYVIDCRYPYEYLGGHIQGALNLYSQEELFNFFLKKPIVPLDTQKRIIIVFHCEFSSERGPRMCRCLREEDRSLNQYPALYYPELYILKGGYRDFFPEYMELCEPQSYCPMHHQDHKTELLRCRSQSKVQEGERQLREQIALLVKDMSP | – | – | bound selectively only to the mitotically hyperphosphorylated form | – |
| – | Parvulin: prototype of the Pin1 family of PPIases, R68 and R69 replaced by Glu (protein, UniProt P0A9L5 2-93, looked up) Peptidyl-prolyl cis-trans …: AKTAAALHILVKEEKLALDLLEQIKNGADFGKLAKKHSICPSGKRGGDLGEFRQGQMVPAFDKVVFSCPVLEPTGPLHTQFGYHIIKVLYRN | – | – | – | isomerization of pS-P peptidyl bonds ([7]; phosphorylated peptide): failed to catalyze the isomerization of pS-P peptidyl bonds; catalytic activity for the unphosphorylated peptide substrate ([7]; unphosphorylated peptide): very effective in catalyzing the P isomerization of the unphosphorylated peptide |
